Assay results: PMC12177922, “In Vivo Ribosome-Amplified MetaBOlism, RAMBO, Effect Observed by Real Time Pulse Chase, RTPC, NMR Spectroscopy” (Biochemistry, 2025)

Substrate: Nc1ncnc2c1ncn2[C@@H]1O[C@H](COP(=O)(O)OP(=O)(O)OP(=O)(O)O)[C@@H](O)[C@H]1O
Test: direct 1H NMR kinetic assay (FBP peak)
Format: biochemical, Geobacillus stearothermophilus
Settings: 1 mM F6P, 1 nM enzyme, pH 7.5, 10 mM sodium phosphate, 50 mM KCl, 10 mM MgCl2, 10 °C, no ribosomes, fit with substrate inhibition

B1: PFK-A (Geobacillus stearothermophilus) (protein)
chain: MKRIGVLTSGGDSPGMNAAIRSVVRKAIYHGVEVYGVYHGYAGLIAGNIKKLEVGDVGDIIHRGGTILYTARCPEFKTEEGQKKGIEQLKKHGIEGLVVIGGDGSYQGAKKLTEHGFPCVGVPGTIDNDIPGTDFTIGFDTALNTVIDAIDKIRDTATSHERTYVIEVMGRHAGDIALWSGLAGGAETILIPEADYDMNDVIARLKRGHERGKKHSIIIVAEGVGSGVDFGRQIQEATGFETRVTVLGHVQRGGSPTAFDRVLASRLGARAVELLLEGKGGRCVGIQNNQLVDHDIAEALANKHTIDQRMYALSKELSI
notes: commercial lyophilized enzyme (Sigma-Aldrich)
  Km: 84 ± 9.8 µM
  kcat: 36 ± 1.5 s⁻¹
